Laboratory results as given in FireProtDB (doi:10.1093/protein/13.4.299).
“And” between values parts separate entries of the source, which are not always exact repeats. Equal values may be shown once.

Settings: Homo sapiens, DSC, reversible: yes, whole UniProt chain shown; for Tm / heat capacity change of unfolding / unfolding enthalpy (calorimetric) / unfolding enthalpy (van 't Hoff): Thermal; for denaturant m value / denaturant midpoint (higher = more stable) / unfolding free energy: 25 °C, GdnHCl

B1: Lysozyme C wild type, P61626 (protein)
chain: MKALIVLGLVLLSVTVQGKVFERCELARTLKRLGMDGYRGISLANWMCLAKWESGYNTRATNYNAGDRSTDYGIFQINSRYWCNDGKTPGAVNACHLSCSALLQDNIADAVACAKRVVRDPQGIRAWVAWRNRCQNRDVRQYVQGCGV
Tm (pH 2.63, glycine-HCl 50 mM): 55.6 °C | heat capacity change of unfolding (pH 2.63, glycine-HCl 50 mM): 1.94 kcal/mol/K | unfolding enthalpy (calorimetric) (pH 2.63, glycine-HCl 50 mM): 90.6 kcal/mol | unfolding enthalpy (van 't Hoff) (pH 2.63, glycine-HCl 50 mM): 96.3 kcal/mol | Tm (pH 2.64, glycine-HCl 50 mM): 56.4 °C | heat capacity change of unfolding (pH 2.64, glycine-HCl 50 mM): 1.63 kcal/mol/K | unfolding enthalpy (calorimetric) (pH 2.64, glycine-HCl 50 mM): 95.1 kcal/mol | unfolding enthalpy (van 't Hoff) (pH 2.64, glycine-HCl 50 mM): 95.6 kcal/mol | Tm (pH 2.68, glycine-HCl 50 mM): 56.8 °C | heat capacity change of unfolding (pH 2.68, glycine-HCl 50 mM): 1.94 kcal/mol/K | unfolding enthalpy (calorimetric) (pH 2.68, glycine-HCl 50 mM): 92 kcal/mol | unfolding enthalpy (van 't Hoff) (pH 2.68, glycine-HCl 50 mM): 96.3 kcal/mol | Tm (pH 2.75, glycine-HCl 50 mM): 58.2 °C | heat capacity change of unfolding (pH 2.75, glycine-HCl 50 mM): 1.77 kcal/mol/K | unfolding enthalpy (calorimetric) (pH 2.75, glycine-HCl 50 mM): 97.5 kcal/mol | unfolding enthalpy (van 't Hoff) (pH 2.75, glycine-HCl 50 mM): 99 kcal/mol | Tm (pH 2.78, glycine-HCl 50 mM): 59 °C | heat capacity change of unfolding (pH 2.78, glycine-HCl 50 mM): 1.31 kcal/mol/K | unfolding enthalpy (calorimetric) (pH 2.78, glycine-HCl 50 mM): 98 kcal/mol | unfolding enthalpy (van 't Hoff) (pH 2.78, glycine-HCl 50 mM): 101 kcal/mol | Tm (pH 2.84, glycine-HCl 50 mM): 60.3 °C | heat capacity change of unfolding (pH 2.84, glycine-HCl 50 mM): 1.67 kcal/mol/K | unfolding enthalpy (calorimetric) (pH 2.84, glycine-HCl 50 mM): 98.5 kcal/mol | unfolding enthalpy (van 't Hoff) (pH 2.84, glycine-HCl 50 mM): 103 kcal/mol | Tm (pH 2.87, glycine-HCl 50 mM): 60.5 °C | heat capacity change of unfolding (pH 2.87, glycine-HCl 50 mM): 1.7 kcal/mol/K | unfolding enthalpy (calorimetric) (pH 2.87, glycine-HCl 50 mM): 99 kcal/mol | unfolding enthalpy (van 't Hoff) (pH 2.87, glycine-HCl 50 mM): 99 kcal/mol | Tm (pH 2.93, glycine-HCl 50 mM): 62.5 °C | heat capacity change of unfolding (pH 2.93, glycine-HCl 50 mM): 1.46 kcal/mol/K | unfolding enthalpy (calorimetric) (pH 2.93, glycine-HCl 50 mM): 102 kcal/mol | unfolding enthalpy (van 't Hoff) (pH 2.93, glycine-HCl 50 mM): 102 kcal/mol | denaturant m value (pH 3, glycine-HCl 50 mM): 3.23 kcal/mol/M and 3.01 kcal/mol/M | denaturant midpoint (higher = more stable) (pH 3, glycine-HCl 50 mM): 2.9 M and 2.1 M | unfolding free energy (pH 3, glycine-HCl 50 mM): 9.49 kcal/mol and 6.19 kcal/mol | denaturant m value (pH 4, glycine-HCl 50 mM): 3.37 kcal/mol/M and 2.96 kcal/mol/M | denaturant midpoint (higher = more stable) (pH 4, glycine-HCl 50 mM): 3.8 M and 2.8 M | unfolding free energy (pH 4, glycine-HCl 50 mM): 12.9 kcal/mol and 8.25 kcal/mol | denaturant m value (pH 7, Sodium phosphate 50 mM): 3.01 kcal/mol/M | denaturant midpoint (higher = more stable) (pH 7, Sodium phosphate 50 mM): 4 M | unfolding free energy (pH 7, Sodium phosphate 50 mM): 12.1 kcal/mol
